Assay results as given in patent US20230285581A1 (published 2023).

T1: full length monkey MSR1 on HEK293.mfMSR1 cells (Macaca fascicularis, UniProt A0A2K5UWE2 1-451)
T1 construct: whole, on cells
T1 sequence: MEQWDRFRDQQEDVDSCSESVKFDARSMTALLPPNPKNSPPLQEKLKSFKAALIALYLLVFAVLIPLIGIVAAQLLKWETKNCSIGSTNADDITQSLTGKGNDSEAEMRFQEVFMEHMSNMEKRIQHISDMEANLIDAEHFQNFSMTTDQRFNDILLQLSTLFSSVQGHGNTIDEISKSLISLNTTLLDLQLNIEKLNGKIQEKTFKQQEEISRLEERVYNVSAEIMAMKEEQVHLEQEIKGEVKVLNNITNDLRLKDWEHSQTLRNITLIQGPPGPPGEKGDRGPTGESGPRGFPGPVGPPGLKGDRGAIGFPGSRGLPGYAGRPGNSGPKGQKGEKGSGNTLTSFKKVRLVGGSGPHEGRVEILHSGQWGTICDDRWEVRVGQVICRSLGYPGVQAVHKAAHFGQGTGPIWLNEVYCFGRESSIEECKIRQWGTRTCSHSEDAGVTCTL

T2: mouse MSR1 extracellular domain expressed with a N-terminal nonahistidine tag (mouse, UniProt P30204 79-458)
T2 construct: extracellular domain; Bought reagent; also called His9-mMSR1
T2 sequence: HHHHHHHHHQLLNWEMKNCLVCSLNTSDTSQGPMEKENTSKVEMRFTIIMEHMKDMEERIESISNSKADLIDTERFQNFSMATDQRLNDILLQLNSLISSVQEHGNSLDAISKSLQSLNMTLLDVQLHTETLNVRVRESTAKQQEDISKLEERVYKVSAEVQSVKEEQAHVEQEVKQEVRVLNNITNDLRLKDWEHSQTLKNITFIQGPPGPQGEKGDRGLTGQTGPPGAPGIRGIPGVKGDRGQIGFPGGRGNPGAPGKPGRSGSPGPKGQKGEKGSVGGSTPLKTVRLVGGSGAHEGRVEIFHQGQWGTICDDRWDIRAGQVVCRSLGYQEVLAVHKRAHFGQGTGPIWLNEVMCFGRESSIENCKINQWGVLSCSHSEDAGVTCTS


Key:
[1] = biological target: T1, full length monkey MSR1 on …; assay: ECL cell binding, HEK293.mfMSR1 cells
[2] = biological target: T2, mouse MSR1 extracellular domain …; assay: BLI (Octet), 25C, mAb captured; no dissociation seen, kd fixed at 5.00E-05
Protocol: Binding affinities and kinetic constants of human anti-MSR1 antibodies for different MSR1 reagents were determined using a real time, label-free bio-layer interferometry assay on an OCTET® HTX biosensor platform (Pall FortéBio Corp., Menlo Park, Calif.). The experiment was performed at 25° C. in 10 mM HEPES, 150 mM NaCl, 3 mM EDTA, 0.05% v/v Surfactant Tween-20, and 1 mg/mL BSA, pH7.4 (HBS-EBT) buffer with the plate shaking at the speed of 1000 rpm. […] The anti-MSR1 monoclonal antibodies were captured by dipping either anti-human Fc (AHC) or anti-mouse Fc (AMC) Octet biosensors in wells containing 5 μg/mL or 10 μg/mL of anti-MSR1 monoclonal antibody for 45-90 seconds. […] The binding of different MSR1 reagents to the captured anti-MSR1 monoclonal antibody was measured for 4 minutes and the dissociation of monoclonal antibody bound MSR1 reagent was monitored for 8-10 minutes in HBS-EBT buffer.
The association rate (kₐ) and dissociation rate (kd) were determined by fitting the real-time binding sensorgrams to a 1:1 binding model with mass transport limitation using Scrubber 2.0c curve-fitting software. Binding dissociation equilibrium constant (KD) and dissociative half-life (t½) were calculated from the kinetic rates as:

Binder	ratio of 11 nM antibody binding signal (RLU) to isotype control [1]	t½ [2]
H2aM21229N (antibody, mouse IgG2a, V domains shown, mouse IgG2a Fc (H2aM)) VH: EVQLVESGGGLVKPGGSLRLSCAASGFTFSRYSMNWVRQAPGKGLEWVSSISSSSSYIYYGDTVKGRFTISRDNAKKSLYLQMNSLRAEDTAVYYCVRDRGQLVLYFDYWGQGTLVTVSS VL: DIQMTQSPASLSTSIRDRVTITCRASLSISSFLNWFQQRPGKAPKLLIYVASNLQSGVPSRFSDSGSGTDFTLTISSLQPEDFATYYCQQNYSTPPITFGQGTRLEIK	27 ratio	–
H1H27766P2-N297Q (antibody, human IgG1, V domains shown, human IgG1 Fc with N297Q; also called H1H27766P-N297Q) VH: EVQLVESGGGLVQPGGSLRLSCAASGFTFSSFAMSWVRQAPGKELEWVSSISGRGGSTYYADSVRGRFTISRDNSKITLYLQMNSLRAEDTAVYYCAKDIVFRYTSSAYWYFDLWGRGTLVTVSS VL: not shown	13 ratio	–

Next, values leading:

ratio of 11 nM antibody binding signal (RLU) to isotype control [1]	t½ [2]	Binder
–	≥ 3.85 h	H1H21234N-N297Q (antibody, human IgG1, V domains shown, human IgG1 Fc with N297Q) VH: QVQLQESGPGLVKPSETLSLTCTVTGGSISRNYWSWIRQPPGKGLEWIGYIYYSGSIDYNPSLKSRVTISVDTSKNQFSLKLSSMTAADTAVYYCARDRWNWKYGMDVWGQGTTVIVSS VL: EIVLTQSPGTLSLSPGERATLSCRASQTVRNNYLAWYHQKPGQAPRLLIYGASSRATGIPDRFSGSGSGTDFTLTISRLEPEDFTVYYCHQYGNSPWTFGQGTKMEIKR
–	≥ 3.85 h	H1H21234N (antibody, human IgG1, V domains shown, original human IgG1 Fc) VH: QVQLQESGPGLVKPSETLSLTCTVTGGSISRNYWSWIRQPPGKGLEWIGYIYYSGSIDYNPSLKSRVTISVDTSKNQFSLKLSSMTAADTAVYYCARDRWNWKYGMDVWGQGTTVIVSS VL: EIVLTQSPGTLSLSPGERATLSCRASQTVRNNYLAWYHQKPGQAPRLLIYGASSRATGIPDRFSGSGSGTDFTLTISRLEPEDFTVYYCHQYGNSPWTFGQGTKMEIKR
1 ratio	–	H1xH29282P2 (antibody, V domains shown, the prefix H1xH is not explained for the anti-MSR1 antibodies) VH: EVQLVESGGGLVQPGGSLRLSCAASGFTFSTYAMSWVRQAPGKGLEWVSTISGRSDITYFADSVKGRFTVSRDNSKTTLYLQMNSLRAEDTAVYYCATDDDLPLDYWGQGTLVTVSS VL: not shown
